Experiment [1] has as its target recombinant His-tagged FAK (focal adhesion kinase) (UniProt Q05397 1-1052). As to the kind of experiment: pull-down.
Experiment [2] concerns the target recombinant His-tagged Pyk2 (proline-rich tyrosine kinase 2) (UniProt Q14289 1-1009). Briefly: pull-down.

Drawing on paper PMC5748976 (The Journal of Cell Biology, 2018), this text covers Kd for one molecule.

Sequence of recombinant His-tagged Pyk2 (proline-rich tyrosine kinase 2) (Q14289 whole entry): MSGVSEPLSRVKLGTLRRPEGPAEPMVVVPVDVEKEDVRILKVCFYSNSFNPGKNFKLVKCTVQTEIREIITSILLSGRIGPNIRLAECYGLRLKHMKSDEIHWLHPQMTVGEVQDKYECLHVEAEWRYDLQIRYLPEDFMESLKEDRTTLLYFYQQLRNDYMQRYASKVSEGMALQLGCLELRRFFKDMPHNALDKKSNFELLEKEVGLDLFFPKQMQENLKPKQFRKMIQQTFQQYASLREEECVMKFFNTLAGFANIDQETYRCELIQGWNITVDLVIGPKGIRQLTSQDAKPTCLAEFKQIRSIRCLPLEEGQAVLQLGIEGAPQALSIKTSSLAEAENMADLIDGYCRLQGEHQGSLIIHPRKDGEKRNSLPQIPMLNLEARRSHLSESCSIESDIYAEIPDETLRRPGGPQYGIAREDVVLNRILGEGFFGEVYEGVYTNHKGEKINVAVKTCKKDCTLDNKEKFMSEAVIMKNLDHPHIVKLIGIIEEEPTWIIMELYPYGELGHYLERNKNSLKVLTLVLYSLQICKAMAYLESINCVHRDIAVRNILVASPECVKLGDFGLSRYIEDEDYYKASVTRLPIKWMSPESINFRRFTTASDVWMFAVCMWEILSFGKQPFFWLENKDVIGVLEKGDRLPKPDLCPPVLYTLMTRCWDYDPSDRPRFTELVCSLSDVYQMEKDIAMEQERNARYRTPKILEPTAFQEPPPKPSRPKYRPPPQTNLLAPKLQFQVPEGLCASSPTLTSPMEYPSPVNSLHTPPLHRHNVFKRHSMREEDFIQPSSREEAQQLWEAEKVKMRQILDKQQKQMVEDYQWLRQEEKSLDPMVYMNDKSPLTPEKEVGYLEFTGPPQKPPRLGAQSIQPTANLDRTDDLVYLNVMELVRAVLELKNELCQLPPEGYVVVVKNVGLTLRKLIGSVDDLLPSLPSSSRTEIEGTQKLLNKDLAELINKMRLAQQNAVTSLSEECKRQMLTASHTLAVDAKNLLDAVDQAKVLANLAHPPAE
Sequence of recombinant His-tagged FAK (focal adhesion kinase) (Q05397 whole entry): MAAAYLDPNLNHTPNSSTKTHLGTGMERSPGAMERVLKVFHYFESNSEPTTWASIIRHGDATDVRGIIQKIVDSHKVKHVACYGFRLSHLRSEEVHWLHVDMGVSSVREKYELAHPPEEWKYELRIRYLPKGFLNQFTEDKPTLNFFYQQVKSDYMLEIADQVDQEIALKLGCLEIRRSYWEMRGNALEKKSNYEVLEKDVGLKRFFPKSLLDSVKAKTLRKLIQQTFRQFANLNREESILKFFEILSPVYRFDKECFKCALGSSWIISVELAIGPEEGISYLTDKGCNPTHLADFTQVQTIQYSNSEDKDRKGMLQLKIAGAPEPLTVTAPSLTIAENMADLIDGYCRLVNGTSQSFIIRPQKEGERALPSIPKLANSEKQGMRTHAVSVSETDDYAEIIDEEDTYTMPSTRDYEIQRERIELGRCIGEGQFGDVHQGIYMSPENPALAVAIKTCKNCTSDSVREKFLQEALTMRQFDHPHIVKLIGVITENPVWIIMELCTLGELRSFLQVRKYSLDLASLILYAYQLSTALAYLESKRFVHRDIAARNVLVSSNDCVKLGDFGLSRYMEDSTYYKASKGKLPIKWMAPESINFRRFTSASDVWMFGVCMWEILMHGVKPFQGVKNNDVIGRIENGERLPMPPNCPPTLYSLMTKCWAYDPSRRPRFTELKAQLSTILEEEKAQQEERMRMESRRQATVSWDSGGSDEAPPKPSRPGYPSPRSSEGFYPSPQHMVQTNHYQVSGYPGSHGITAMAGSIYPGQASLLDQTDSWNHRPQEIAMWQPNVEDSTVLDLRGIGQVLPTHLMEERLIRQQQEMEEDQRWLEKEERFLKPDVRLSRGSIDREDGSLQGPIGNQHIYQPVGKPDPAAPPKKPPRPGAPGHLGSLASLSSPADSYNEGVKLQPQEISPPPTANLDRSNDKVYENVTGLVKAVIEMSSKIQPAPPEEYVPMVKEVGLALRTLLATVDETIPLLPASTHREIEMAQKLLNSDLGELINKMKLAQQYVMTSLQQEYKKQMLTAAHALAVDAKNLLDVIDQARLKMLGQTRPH

B1: recombinant His-tagged cortactin (natural protein)
chain: not shown
For the molecule B1, the values for the dissociation constant (Kd) in experiment [1] and in experiment [2] were 2160 ± 683 nM and 490 ± 138 nM, respectively.
